For 3 substances, specific caseinolytic activity results are on record in publication PMC7471176.

Assay [1] addresses Casein (Hammerstein casein).
In assay [2] the target is Casein (Hammerstein casein). The source holds these as a separate data set.

“KP-43 Y195I (Tyr195Ile) variant (enzyme)” gave a specific caseinolytic activity at pH 6, against that of the Y195R variant in assay [1] of 1.8 fold. “KP-43 Y195Q (Tyr195Gln) variant (enzyme)” showed a specific caseinolytic activity at pH 10, against that of the Y195W variant in assay [1] of 4.4 fold.

As for “KP-43 alkaline serine protease, wild type (enzyme)”, the specific caseinolytic activity at pH 7, against that at pH 10 (series pH 6 to 10) in assay [2] stood at 90%.
